Results published in PMC2686732, “Both Ca^2+ and Zn^2+ are essential for S100A12 protein oligomerization and function” (BMC Biochemistry, 2009).

How the values were obtained:
[1] = target: T1, Human RAGE-Fc fusion protein (human, UniProt Q15109 23-342); assay: SPR; S100A12 immobilised (2,933 RU) by amine coupling on CM5; RAGE/Fc (125 nM) injected 3 min at 30 ul/min; HBS-P buffer with 1 mM Ca2+ and 20 uM Zn2+; 1:1 Langmuir model; conditions: both partners purified
T1 construct: RAGE (Receptor for Advanced Glycation End products), human; also called recombinant human RAGE/Fc; source: bought: R&D Systems

[2] = target: the molecule itself; assay: native gel or EMSA; native PAGE, 7.5% gel, Tris-glycine pH 8.8, 14 ug S100A12 with 5 uM Zn
[3] = target: the molecule itself; assay: native gel or EMSA; native PAGE, S100A12 with zinc and calcium plus TPEN (zinc chelator) or EDTA (divalent ion chelator)
[4] = target: the molecule itself; assay: native gel or EMSA; native PAGE, S100A12 in the presence of both Ca and Zn (also with the copper I chelator BCS)
[5] = target: the molecule itself; assay: SEC; Superdex 200, 50 mM Tris-HCl pH 7.5, 200 mM NaCl, 20 C, 1 mg/ml injected; no ions added
[6] = target: the molecule itself; assay: native gel or EMSA; native PAGE, 7.5% gel, Tris-glycine pH 8.8, 14 ug S100A12 in 2 mM Ca

T1 sequence (Q15109 23-342): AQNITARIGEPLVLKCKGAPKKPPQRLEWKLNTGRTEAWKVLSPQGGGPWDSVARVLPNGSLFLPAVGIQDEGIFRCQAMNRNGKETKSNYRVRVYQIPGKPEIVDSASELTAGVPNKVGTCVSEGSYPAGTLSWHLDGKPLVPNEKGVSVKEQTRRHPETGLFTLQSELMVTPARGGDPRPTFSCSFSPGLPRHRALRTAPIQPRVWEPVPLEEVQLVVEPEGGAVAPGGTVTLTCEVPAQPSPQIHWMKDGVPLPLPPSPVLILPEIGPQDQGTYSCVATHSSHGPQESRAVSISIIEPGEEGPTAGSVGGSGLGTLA

B1: Recombinant full-length human S100A12 (natural protein, UniProt P80511 1-92, looked up)
chain: MTKLEEHLEGIVNIFHQYSVRKGHFDTLSKGELKQLLTKELANTIKNIKDKAVIDEIFQGLDANQDEQVDFQEFISLVAIALKAAHYHTHKE
notes: S100A12, human, full length; expressed from a modified pQE60 vector with a stop codon inserted so that the protein has no histidine tag; Oligomeric state (dimer, tetramer, hexamer) depends on Ca2+ and Zn2+ in the sample; [U-15N] labelled for the NMR experiments; also called apo-S100A12; Ca2+-S100A12; source: E. coli, purified (Phenyl-Sepharose, ResQ ion exchange)
- Kd [1]: 4.6 nM
- koff [1]: 0.00032 s⁻¹
- kon [1]: 68000 M⁻¹ s⁻¹
- stoichiometry N [2]: ~4
- stoichiometry N [3]: 2
- stoichiometry N [4]: 6
- stoichiometry N [5]: 4
- stoichiometry N [6]: ~6
